# B1: SPB(1-78): synthetic full length SP-B peptide, sequence based on natural SP-B (peptide, UniProt P07988 201-279, looked up)
# Pulmonary …: FPIPLPYCWLCRALIKRIQAMIPKGALAVAVAQVCRVVPLVAGGICQCLAERYSVILLDTLLGRMLPQLVCRLVLRCSM
# modifications: Pulmonary surfactant-associated protein B
# Assays:
# Format in all cases: physicochemical
# [1] = Modified Wilhelmy surface balance (Langmuir trough): dynamic surface tension versus compressed surface area; conditions: for Surface activity of admixtures, in words: data of Tables 2 and 3 (Wilhelmy balance, King-Clements, pulsating bubble); for Wilhelmy-Langmuir Trough Equilibrum (equilibrium adsorption value): after a three (3) minute spreading time, total peptide 0.5 mg/ml; for Wilhelmy-Langmuir Trough Equilibrum (equilibrium adsorption value) / Wilhelmy-Langmuir Trough Max (maximum dynamic surface tension) / Wilhelmy-Langmuir Trough Min (minimum dynamic surface tension): 37° C.; for Wilhelmy-Langmuir Trough Max (maximum dynamic surface tension) / Wilhelmy-Langmuir Trough Min (minimum dynamic surface tension): peptide/lipid admixture, total peptide 0.5 mg/ml (two peptides: 0.25 mg/ml each), 675 μg phospholipid, seven compression-expansion cycles, average of 3 runs
# Excerpt: The dynamic surface tension lowering properties of the peptide/lipid admixtures were studied using a modified Wilhelmy Surface Balance (Langmuir Trough). The instrument consists of an all Teflon trough and movable Teflon ribbon (dam) barrier system which completely contains and defines a variable surface area. Surface area was varied through the use of a constant rate reversible 3-phase motor to drive the Teflon barrier. A Cahn 2000 electrobalance (Cahn Instruments, Cerittos, CA) with a sandblasted 1 cm platinum plate and stainless steel hangdown wire was employed to determine the surface tension at the liquid-air interface. The entire apparatus was situated in a thermostated incubator set at 45° C. Surface area-surface tension measurements were made by adding 950 ml of 0.15M NaCl to the trough. Subphase temperature was controlled during the measurements at 36°-38° C.
# For each experiment 27 ul of peptide/lipid admixture was applied in a random array of 13 (.congruent.2 ul) droplets to the surface of the temperature controlled subphase and allowed to spread spontaneously for 3 minutes. (The 27 ul application corresponds to 675 ug of phospholipid). The trough surface area was then cycled from a maximum (445 sq. cm) to a minimum (178 sq. cm) surface area and back to maximum at a cycling rate of 3 cycles/min (compression ratio 2.5:1). The dynamic surface tension vs surface area was recorded for 7 complete compression-expansion cycles for each application.
# [2] = Pulsating bubble surfactometer (PBS) surface tension; conditions: after 100 cycles (5 minutes, 20 cycles/minute); phospholipid 1 mg/ml; 37° C.; diluent […] NaCl; mean of triplicate
# Description: The PBS equipment (Electronetics, Buffalo, N.Y.) used was essentially equivalent to that described in detail by G. Enhorning, J. Appld. Physiol. 43, 198-203, (1977). Recordings were made of the pressure gradient across the wall of a small air bubble, communicating with ambient air by means of a narrow chimney stack, but otherwise entirely surrounded by a 40 ul volume of the peptide/lipid admixture. The admixture concentration employed for these studies was 1 mg/ml total phospholipid (0.02 mg/ml total peptide) and the diluent was 0.15M NaCl. Immediately prior to loading the sample chamber, the diluted samples were sonicated for 15 seconds to remove any gas nuclei.
# The pressure drop across the air-water interface was measured during pulsation by a pressure transducer, and the corresponding surface tension determined through the application of Young's law and the Laplace equation. Measurements were all made at 37° C. and the bubble pulsed at 20 cycles/minute to render respectively a maximum (1.1 mm) and a minimum (0.8 mm) bubble diameter. (This compression/expansion corresponds to a 50% change the surface area of the air-water interface).
# [3] = Adsorption rate, King-Clements system (Wilhelmy balance with stirred round Teflon dish); conditions: 10 ml of diluted sample (1:50) added under constant agitation to 70 ml saline subphase; 37° C.
# Description: A procedure similar to that described by Notter, et al., Pediatric Res. 16, 515-519, (1982) was employed to determine the absorption rate in the absence of diffusion resistance. The modified Wilhelmy surface balance as described above was used. However, instead of using a Langmuir trough a round Teflon dish (5.1 cm diameter) was employed. The subphase, 70 ml of 0.15M NaCl, was allowed to equilibrate to 37° C. in the incubator and was continuously stirred with a Teflon coated magnetic stirer. An aliquot of the peptide/lipid admixture containing 5 mg of total phospholipid was dispersed in 10 ml of 0.15M NaCl by vortexing for 10 seconds. This dispersion was then added to the saline subphase. Surface tension lowering was monitored using a strip chart recorder connected to the electrobalance output and data collected for 20 minutes.
Molecule,"Surface activity of admixtures, in words [1]",Surface Tension Values Maximum (pulsating bubble apparatus) [2],Surface Tension Values Minimum (pulsating bubble apparatus) [2],Wilhelmy-Langmuir Trough Equilibrum (equilibrium adsorption value) [1],Wilhelmy-Langmuir Trough Max (maximum dynamic surface tension) [1],Wilhelmy-Langmuir Trough Min (minimum dynamic surface tension) [1],King-Clements Adsorption (adsorption surface tension) [3]
"C-14 (Myristic acid)-SP-C (FGIPCCPVHLKRLLIVVVVVVLIVVVIVGALLMG; Pulmonary surfactant-associated protein C N-terminal myristic acid; UniProt P11686 24-57, looked up, fragment) [C14 -SPC(1-34), myristic acid (C14) covalently attached to the N-terminal end of synthetic human SP-C(1-34)]",unusual surface activity,,,,,,
"C-16 (Palmitic acid)-SP-C (FGIPCCPVHLKRLLIVVVVVVLIVVVIVGALLMG; Pulmonary surfactant-associated protein C N-terminal palmitic acid; UniProt P11686 24-57, looked up, fragment) [C16 -SPC(1-34)]",unusual surface activity,,,,,,
"SPB(53-78): synthetic C-terminal SP-B fragment, sequence based on natural SP-B (YSVILLDTLLGRMLPQLVCRLVLRCS; Pulmonary surfactant-associated protein B; UniProt P07988 253-278, looked up, fragment) [reference compound]",,55.5 dynes/cm,4.9 dynes/cm,40.0 dynes/cm,49.3 dynes/cm,0.1 dynes/cm,45.0 dynes/cm
B1,,49.0 dynes/cm,4.2 dynes/cm,38.0 dynes/cm,45.0 dynes/cm,0.0 dynes/cm,30.0 dynes/cm
